Measured values reported in patent publication US20200247856A1 (SHIRE HUMAN GENETIC THERAPIES, published 2020).

Columns and labels:
[1] = molecular target: T1, Activin A (R&D Systems, Catalog number 338-AC-050 CF) (UniProt P08476 311-426); assay: cell-based or functional assay
T1 sequence (looked up): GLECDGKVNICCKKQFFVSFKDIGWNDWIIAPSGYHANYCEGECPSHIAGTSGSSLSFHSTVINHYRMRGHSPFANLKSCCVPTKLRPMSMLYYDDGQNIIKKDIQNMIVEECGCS

[2] = molecular target: T2, Myostatin (R&D Systems, Catalogue number 788-G8-010/CF) (UniProt O14793 267-375); assay: cell-based or functional assay
T2 sequence (looked up): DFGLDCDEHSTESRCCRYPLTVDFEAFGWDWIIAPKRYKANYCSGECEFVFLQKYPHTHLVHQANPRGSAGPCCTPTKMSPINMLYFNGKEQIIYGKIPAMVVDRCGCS

B1: FS315K(76,81,82)E-mFc (Fc fusion, not shown: a dimerising Fc or GST)
chain: GNCWLRQAKNGRCQVLYKTELSKEECCSTGRLSTSWTEEDVNDNTLFKWMIFNGGAPNCIPCKETCENVDCGPGKECRMNEENKPRCVCAPDCSNITWKGPVCGLDGKTYRNECALLKARCKEQPELEVQYQGRCKKTCRDVFCPGSSTCVVDQTNNAYCVTCNRICPEPASSEQYLCGNDGVTYSSACHLRKATCLLGRSIGLAYEGKCIKAKSCEDIQCTGGKKCLWDFKVGRGRCSLCDELCPDSKSDEPVCASDNATYASECAMKEAACSSGVLLEVKHSGSCNSISEDTEEEEEDEDQDYSFPISSILEW
B1 was tested, and the “Activin A IC50 (nM), luciferase gene reporter assay (Smad3, A204 cells)” value [1] was 0.8 nM and the “Myostatin IC50 (nM), luciferase gene reporter assay (Smad3, A204 cells)” value [2] was 0.7 nM.

B2: ActRIIB-Fc protein (R&D Systems, Catalogue number 339-RBB-100) (Fc fusion, UniProt Q13705 19-134, looked up, not shown: a dimerising Fc or GST)
chain: SGRGEAETRECIYYNANWELERTNQSGLERCEGEQDKRLHCYASWRNSSGTIELVKKGCWLDDFNCYDRQECVATEENPQVYFCCCEGNFCNERFTHLPEAGGPEVTYEPPPTAPT
B2 was tested, and the “Activin A IC50 (nM), luciferase gene reporter assay (Smad3, A204 cells)” value [1] was 0.5 nM and the “Myostatin IC50 (nM), luciferase gene reporter assay (Smad3, A204 cells)” value [2] was 0.5 nM.
